The values that follow come from publication PMC10567730, “PTPN23 ubiquitination by WDR4 suppresses EGFR and c-MET degradation to define a lung cancer therapeutic target” (Cell Death & Disease, 2023).

The experiment has as its target T1, His-PTPN23 (UniProt Q9H3S7 1-1636).
T1 construct: PTPN23 cDNA amplified and subcloned to pVL1392 with a His-tag; also called baculovirally purified PTPN23; source: baculovirus, purified (Ni-Sepharose beads, eluted with imidazole)
The experiment in a line: pull-down; GST-WDR4 bound on glutathione beads incubated with purified PTPN23 or PTPN23 segments; binding buffer 50 mM Tris-HCl pH 7.5, 150 mM NaCl, 1% NP-40; bound proteins by Western blot. As to conditions: both partners purified. Background: In western blotting, separated proteins are transferred to a membrane and probed.

T1 sequence (Q9H3S7 whole entry): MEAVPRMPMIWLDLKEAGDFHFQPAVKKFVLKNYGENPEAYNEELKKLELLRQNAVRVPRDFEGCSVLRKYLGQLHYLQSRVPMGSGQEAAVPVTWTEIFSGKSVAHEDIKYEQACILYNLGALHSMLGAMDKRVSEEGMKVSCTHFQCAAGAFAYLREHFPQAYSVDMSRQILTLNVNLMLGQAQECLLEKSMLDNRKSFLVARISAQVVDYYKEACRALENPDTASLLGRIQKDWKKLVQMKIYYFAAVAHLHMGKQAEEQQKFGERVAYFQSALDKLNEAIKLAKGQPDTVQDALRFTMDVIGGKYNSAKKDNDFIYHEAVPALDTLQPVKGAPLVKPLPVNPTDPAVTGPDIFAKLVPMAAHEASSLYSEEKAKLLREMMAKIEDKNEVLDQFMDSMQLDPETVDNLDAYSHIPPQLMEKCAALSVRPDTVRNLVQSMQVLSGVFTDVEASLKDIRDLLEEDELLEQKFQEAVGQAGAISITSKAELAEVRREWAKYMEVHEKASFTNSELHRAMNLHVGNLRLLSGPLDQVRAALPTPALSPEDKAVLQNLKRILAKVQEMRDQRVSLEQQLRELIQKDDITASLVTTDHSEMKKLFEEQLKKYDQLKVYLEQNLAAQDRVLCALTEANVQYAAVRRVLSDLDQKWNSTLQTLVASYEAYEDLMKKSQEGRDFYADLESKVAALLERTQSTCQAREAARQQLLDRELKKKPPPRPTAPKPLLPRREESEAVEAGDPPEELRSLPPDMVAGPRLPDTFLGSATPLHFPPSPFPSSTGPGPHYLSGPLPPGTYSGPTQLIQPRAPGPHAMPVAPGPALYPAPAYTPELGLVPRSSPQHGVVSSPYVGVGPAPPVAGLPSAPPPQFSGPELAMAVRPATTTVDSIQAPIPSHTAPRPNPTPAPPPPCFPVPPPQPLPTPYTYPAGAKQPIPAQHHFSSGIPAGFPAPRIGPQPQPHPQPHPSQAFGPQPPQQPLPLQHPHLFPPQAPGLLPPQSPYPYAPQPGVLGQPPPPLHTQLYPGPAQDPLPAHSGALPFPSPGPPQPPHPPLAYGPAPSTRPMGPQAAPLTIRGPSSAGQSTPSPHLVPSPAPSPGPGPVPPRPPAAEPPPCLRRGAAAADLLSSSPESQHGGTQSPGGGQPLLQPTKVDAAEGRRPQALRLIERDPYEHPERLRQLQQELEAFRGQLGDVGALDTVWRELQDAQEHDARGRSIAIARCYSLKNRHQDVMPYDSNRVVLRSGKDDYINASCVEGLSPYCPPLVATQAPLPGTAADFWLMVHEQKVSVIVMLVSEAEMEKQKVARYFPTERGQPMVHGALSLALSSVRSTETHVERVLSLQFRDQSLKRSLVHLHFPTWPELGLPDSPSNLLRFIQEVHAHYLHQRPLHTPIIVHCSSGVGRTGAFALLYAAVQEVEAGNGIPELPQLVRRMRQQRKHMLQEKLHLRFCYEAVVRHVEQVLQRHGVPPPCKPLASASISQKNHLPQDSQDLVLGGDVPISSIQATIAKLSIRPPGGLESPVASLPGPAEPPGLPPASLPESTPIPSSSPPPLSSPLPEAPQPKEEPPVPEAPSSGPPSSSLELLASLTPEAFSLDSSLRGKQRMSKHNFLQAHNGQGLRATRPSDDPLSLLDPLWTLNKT

B1: GST-WDR4 (natural protein, UniProt P57081 1-412, looked up)
chain: MAGSVGLALCGQTLVVRGGSRFLATSIASSDDDSLFIYDCSAAEKKSQENKGEDAPLDQGSGAILASTFSKSGSYFALTDDSKRLILFRTKPWQCLSVRTVARRCTALTFIASEEKVLVADKSGDVYSFSVLEPHGCGRLELGHLSMLLDVAVSPDDRFILTADRDEKIRVSWAAAPHSIESFCLGHTEFVSRISVVPTQPGLLLSSSGDGTLRLWEYRSGRQLHCCHLASLQELVDPQAPQKFAASRIAFWCQENCVALLCDGTPVVYIFQLDARRQQLVYRQQLAFQHQVWDVAFEETQGLWVLQDCQEAPLVLYRPVGDQWQSVPESTVLKKVSGVLRGNWAMLEGSAGADASFSSLYKATFDNVTSYLKKKEERLQQQLEKKQRRRSPPPGPDGHAKKMRPGEATLSC
notes: WDR4 cDNA amplified by PCR and cloned to pGEX-4T-1; pGEX-4T-1 would place GST at the N-terminus (surmised from the vector); also called bacterially purified GST-WDR4
On to B1, for which the binding result is “binds”.
